Results published in the RNAGym collection of RNA variant scans (doi:10.7554/elife.80360).

B1: Hairpin Ribozyme (parent)
chain: GUCCUCUUUCACGUGCGCGUGAAAGAGAGAAGUGAACCAGAGAAACACACGUUGUGGUAUAUUACCUGGUA

Variants of: B1
Test: self-cleavage, relative activity (ratio to wild type); higher = more cleavage; co-transcriptional

In order of rising self-cleavage:
1. U5G A43G  0
2. U5G G56A  0.0193
3. U5G G42A  0.0213
4. U5G C48G  0.0331
5. U5G G27C  0.0408
6. U5G U53C  0.0534
7. U5A G32C  0.0597
8. U5G G29C  0.0639
9. U5C C50A  0.0675
10. U5G A59U  0.0694
11. U5A C50G  0.0755
12. U5G U33C  0.0793
13. C6G A61C  0.0806
14. U5A A30C  0.0813
15. C4U G32U  0.0825
16. U5G A47U  0.0832
17. U5A C37A  0.0853
18. C6A G57C  0.0868
19. C6A A31U  0.0881
20. U5A G56C  0.0893
21. U5C A64U  0.0907
22. U5C A45C  0.0908
23. U5G G32C  0.091
24. U5C G40C  0.0912
25. U5A U67A  0.0927
26. U5C A59U  0.0936
27. C6G C38G  0.0998
28. C6A A31C  0.1
29. U5A A49G  0.103
30. C6A G57A  0.107
31. C6G C50G  0.109
32. U5A G68C  0.11
33. C6G A43C  0.11
34. U5A U67C  0.111
35. C4U G32C  0.114
36. U5C U62A  0.118
37. C6A A45C  0.12
38. C6G A23C  0.122
39. U5G G56C  0.124
40. U5G C48A  0.125
41. U5G C66G  0.127
42. C4U U67C  0.128
43. C4U G25A  0.129
44. C6A A43U  0.131
45. C6A A61G  0.137
46. U5A A39C  0.139
47. U5C A28C  0.139
48. C6G A30G  0.14
49. C6G C50A  0.14
50. U5G U7C  0.143
51. C4U U62A  0.143
52. C4U U67G  0.143
53. U5A G68A  0.146
54. U5A U55G  0.147
55. C4U G40A  0.147
56. C6A U67C  0.15
57. U5A G29C  0.153
58. C6G A30C  0.156
59. U5G A35U  0.156
60. C6A U62C  0.157
61. C4U U55G  0.157
62. U5C G68C  0.159
63. U5C G56C  0.159
64. U5A C50A  0.161
65. C6G A45C  0.163
66. U5A U55A  0.163
67. U5G C50G  0.165
68. U5A G40A  0.17
69. U5G U33A  0.17
70. U5G U7G  0.171
71. C6G C66U  0.173
72. U5G A22U  0.176
73. C6A G68A  0.176
74. C6A A61U  0.182
75. C4U U14C  0.184
76. U5G C50A  0.184
77. U5C G69U  0.186
78. C6A C46G  0.189
79. U5C A64C  0.19
80. U5C G40U  0.19
81. U5A C6G  0.192
82. C4U G51U  0.194
83. U5A G56U  0.206
84. U5G C65U  0.218
85. U5G G51C  0.221
86. U5C A59G  0.222
87. U5A C6U  0.228
88. U5G C37A  0.23
89. C6G C65G  0.23
90. C4U U7G  0.235
91. U5C U60G  0.236
92. C6G C66A  0.239
93. C6A C50U  0.239
94. C4U U20C  0.24
95. U5G A22C  0.24
96. U5C C65U  0.24
97. C6A A39G  0.243
98. U5G G13A  0.245
99. U5C U67G  0.245
100. C6A G57U  0.246
101. C4U G42C  0.253
102. U5A U63G  0.264
103. U5G C65A  0.268
104. U5A A22U  0.274
105. U5A U53G  0.278
106. C4U U20A  0.281
107. U5A C37U  0.291
108. U5C C38U  0.298
109. C6G C10U  0.305
110. U5A C18G  0.306
111. U5C C6U  0.318
112. U5C G40A  0.321
113. U5A G21U  0.322
114. C6A A39U  0.33
115. U5A G15C  0.33
116. C6G C38U  0.332
117. U5C A36U  0.348
118. U5C A35G  0.358
119. U5A U20C  0.358
120. C4U U14A  0.376
121. U5G G51A  0.377
122. C6A A23G  0.387
123. U5A G17U  0.395
124. C6A C10A  0.404
125. C4U U14G  0.418
126. C6A U9G  0.419
127. C6A A71U  0.423
128. C6A A41G  0.439
129. C6A A31G  0.446
130. C6A U8G  0.447
131. U5C U53G  0.448
132. C6G A11G  0.456
133. U5C G13C  0.47
134. C6G A41G  0.47
135. C6A A24U  0.487
136. C6A G13A  0.494
137. C6G A35C  0.499
138. U5C A39C  0.51
139. U5C C16G  0.516
140. U5G C37U  0.516
141. C6G  0.521
142. U5A C18A  0.525
143. C4U G51A  0.533
144. C6A G15A  0.54
145. U5C U60C  0.549
146. C6A G17U  0.553
147. U5A A41C  0.554
148. C6A U58G  0.559
149. U5A U20G  0.566
150. C6G A71G  0.574
151. C6A  0.586
152. U5C A64G  0.587
153. C6A U52A  0.588
154. C6A G13U  0.592
155. U5G U52C  0.596
156. C6A U52C  0.619
157. C6G C16U  0.627
158. U5G A28G  0.669
159. U5A A26U  0.67
160. U5C U52A  0.706
161. U5C C16U  0.71
162. U5C G51A  0.737
163. C6A G51A  0.765
164. U5C G34A  0.78
165. U5C G34C  1
166. U5C A26G  1.26
167. U5C G34U  1.45
